Measurements reported in patent US20220389075A1.
Blank lines part the entries; values can stand above or below the binder they belong to.

Target: Alexa Fluor 647-labeled NY-ESO-1-MHC tetramer
Assay: flow cytometry of transfected Jurkat NFAT-luciferase cells stained with Alexa Fluor 647-labeled NY-ESO-1-MHC tetramer; x axis Alexa 647-A; Empty Vector gate 0.46

- NYESO+: 52.3%
B1: α-CD28 + β-41BB (Linker GGS) (TCR)
TCR alpha: KQEVTQIPAALSVPEGENLVLNCSFTDSAIYNLQWFRQDPGKGLTSLLLIQSSQREQTSGRLNASLDKSSGRSTLYIAASQPGDSATYLCAVRPLYGGSYIPTFGRGTSLIVHPYIQNPDPAVYQLRDSKSSDKSVCLFTDFDSQTNVSQSKDSDVYITDKCVLDMRSMDFKSNSAVAWSNKSDFACANAFNNSIIPEDTFFPSPESSCDVKLVEKSFETDTNLNFQNLSVIGFRILLLKVAGFNLLMTLRLWSSGGSRSKRSRLLHSDYMNMTPRRPGPTRKHYQPYAPPRDFAAYRS
TCR beta: NAGVTQTPKFQVLKTGQSMTLQCAQDMNHEYMSWYRQDPGMGLRLIHYSVGAGITDQGEVPNGYNVSRSTTEDFPLRLLSAAPSQTSVYFCASSYVGNTGELFFGEGSRLTVLEDLKNVFPPEVAVFEPSEAEISHTQKATLVCLATGFYPDHVELSWWVNGKEVHSGVCTDPQPLKEQPALNDSRYCLSSRLRVSATFWQNPRNHFRCQVQFYGLSENDEWTQDRAKPVTQIVSAEAWGRADCGFTSESYQQGVLSA

- NYESO+: 53.6%
B2: α-CD28 + β-CD28 (Linker GGS) (TCR)
TCR alpha: B1 TCR alpha
TCR beta: NAGVTQTPKFQVLKTGQSMTLQCAQDMNHEYMSWYRQDPGMGLRLIHYSVGAGITDQGEVPNGYNVSRSTTEDFPLRLLSAAPSQTSVYFCASSYVGNTGELFFGEGSRLTVLEDLKNVFPPEVAVFEPSEAEISHTQKATLVCLATGFYPDHVELSWWVNGKEVHSGVCTDPQPLKEQPALNDSRYCLSSRLRVSATFWQNPRNHFRCQVQFYGLSENDEWTQDRAKPVTQIVSAEAWGRADCGFTSESYQQGVLSATILYEILLGKATLYAVLVSALVLMAMVKRKDSRGGGSRSKRSRLLHSDYMNMTPRRPGPTRKHYQPYAPPRDFAAYRS

- NYESO+: 64.5%
B3: α-CD28 + β (Linker GGS) (TCR)
TCR alpha: B1 TCR alpha
TCR beta: B1 TCR beta
